From article doi:10.1101/2024.10.04.616518

Legend:
[1] = biological target: ixochymostatin (Ixodes scapularis); assay: SPR
[2] = biological target: bovine pancreatic chymotrypsin (bovine); assay: enzyme inhibition kinetics

Chain of ixochymostatin (Ixodes scapularis) (B7PCV3 21-91): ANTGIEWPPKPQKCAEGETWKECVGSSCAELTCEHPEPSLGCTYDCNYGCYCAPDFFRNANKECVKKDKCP
Chain of ixochymostatin (natural protein) (B7PCV3 21-91): as above

bovine pancreatic chymotrypsin (enzyme)
Kd [1]: 0.076 nM
koff [1]: 1.2e-05 s⁻¹
kon [1]: 160000 M⁻¹ s⁻¹

ixochymostatin (natural protein)
Ki [2]: 0.14 nM
Ki^app (Morrison equation) [2]: 0.81 nM
apparent Ki (Ki^app), from IC50 against protease concentration [2]: 16 nM
